Columns and labels:
recombinant human IL-1β [1] = target: T1, recombinant human IL-1β (human, UniProt P01584 117-269); assay: SPR (BIAcore); KD calculated assuming an off-rate of 1x10^-6
T1 construct: It was biotinylated in the ELISA and in the yeast display experiments; also called Hu IL-1beta; huIL-1b
Experimental: (§1) Goat IgGs specific to human IgG Fc were covalently linked to the carboxy methyl dextran matrix on the CMS biosensor chip via free amine groups using an amine coupling kit and the immobilization wizard option in the Biacore instruments controlling software. Specifically, carboxyl groups of the dextran matrix on the chip were activated with NHS and EDC. Goat anti-human IgG Fc antibodies (25 μg/mL), diluted in 10 mM sodium acetate, pH 4.5, were injected across the activated surface. Once the level of binding response reached the desired value, unreacted groups were deactivated by injection of 1M ethanolamine. For binding of IL-1α & IL-1β to captured Ig, a 1 μg/mL concentration of Ig in HBS-EP+ was injected over the goat anti-human IgG Fc surface at a flow rate of 10 μL/min for 1 minute. The net difference in the baseline signal and the signal after the completion of the Ig injection was taken to represent the amount of bound Ig.
(§2) The potency of the 5 DVD-Igs containing affinity matured h1B12.1 domains to recombinant and native IL-1 antigens was determined using the MRC-5 bioassay as shown in Table 24. The binding kinetics of the DVD-Igs to recombinant human and cynomolgus IL-1α and IL-1β were determined using surface plasmon resonance. In some cases, the off-rate could not be determined as they reached the limit of detection of the instrument.

recombinant human IL-1β [2] = target: T1, recombinant human IL-1β; assay: SPR (BIAcore); the off-rate reached the limit of detection of the instrument
Experimental: as §1, §2

recombinant human IL-1α [3] = target: T2, recombinant human IL-1α (human, UniProt P01583 113-271); assay: cell-based or functional assay
T2 sequence: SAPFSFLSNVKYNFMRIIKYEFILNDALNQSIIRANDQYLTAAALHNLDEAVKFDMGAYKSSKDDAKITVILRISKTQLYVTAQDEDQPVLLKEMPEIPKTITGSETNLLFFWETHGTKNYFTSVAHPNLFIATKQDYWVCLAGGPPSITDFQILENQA

[4] = target: T3, recombinant cynomolgus IL-1β (cynomolgus, UniProt P79182 117-268); assay: cell-based or functional assay
T3 sequence (looked up): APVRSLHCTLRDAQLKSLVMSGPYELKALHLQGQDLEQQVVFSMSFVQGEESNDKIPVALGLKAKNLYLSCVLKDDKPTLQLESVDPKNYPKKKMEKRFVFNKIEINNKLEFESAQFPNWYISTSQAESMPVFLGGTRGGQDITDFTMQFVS

recombinant human IL-1β [5] = target: T1, recombinant human IL-1β; assay: cell-based or functional assay
[6] = target: T4, purified native human IL-1β (human, UniProt P01584 117-269); assay: cell-based or functional assay
[7] = target: T5, recombinant cynomolgus IL-1α (cynomolgus, UniProt P79340 113-271); assay: cell-based or functional assay
T5 sequence (looked up): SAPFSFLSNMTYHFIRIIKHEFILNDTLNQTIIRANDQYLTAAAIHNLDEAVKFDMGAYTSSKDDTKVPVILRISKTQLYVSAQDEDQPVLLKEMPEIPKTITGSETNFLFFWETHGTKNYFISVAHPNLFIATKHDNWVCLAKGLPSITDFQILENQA

[8] = target: T6, native human IL-1α present in crude supernatants (human, UniProt P01583 113-271, limits assumed); assay: cell-based or functional assay
T6 sequence (looked up): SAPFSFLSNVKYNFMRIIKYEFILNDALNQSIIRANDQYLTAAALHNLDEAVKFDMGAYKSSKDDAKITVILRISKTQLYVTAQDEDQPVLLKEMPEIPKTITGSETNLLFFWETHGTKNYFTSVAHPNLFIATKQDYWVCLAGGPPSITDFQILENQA

recombinant human IL-1α [9] = target: T2, recombinant human IL-1α; assay: SPR (BIAcore), DVD-Ig captured via goat anti-human IgG Fc
Experimental: as §1, §2

[10] = target: T3, recombinant cynomolgus IL-1β; assay: as above
Experimental: as §1, §2

recombinant human IL-1β [11] = target: T1, recombinant human IL-1β; assay: as above
Experimental: as §1, §2

[12] = target: T5, recombinant cynomolgus IL-1α; assay: as above
Experimental: as §1, §2

[13] = target: T3, recombinant cynomolgus IL-1β; assay: cell-based or functional assay; remark: listed apart in the source
recombinant human IL-1β [14] = target: T1, recombinant human IL-1β; assay: cell-based or functional assay; remark: listed apart in the source
[15] = target: T4, purified native human IL-1β; assay: cell-based or functional assay; remark: listed apart in the source
[16] = target: T3, recombinant cynomolgus IL-1β; assay: SPR (Biacore), Expt 2
Experimental: as §1

recombinant human IL-1β [17] = target: T1, recombinant human IL-1β; assay: SPR (Biacore), Expt 2
Experimental: as §1

[18] = target: T3, recombinant cynomolgus IL-1β; assay: SPR (Biacore), Expt 1
Experimental: as §1

recombinant human IL-1β [19] = target: T1, recombinant human IL-1β; assay: SPR (Biacore), Expt 1
Experimental: as §1

[20] = target: T3, recombinant cynomolgus IL-1β; assay: SPR (Biacore), average of 2 experiments
Experimental: as §1

recombinant human IL-1β [21] = target: T1, recombinant human IL-1β; assay: SPR (Biacore), average of 2 experiments
Experimental: as §1

recombinant human IL-1α [22] = target: T2, recombinant human IL-1α; assay: cell-based or functional assay; remark: listed apart in the source
[23] = target: T5, recombinant cynomolgus IL-1α; assay: cell-based or functional assay; remark: listed apart in the source
[24] = target: T6, native human IL-1α present in crude …; assay: cell-based or functional assay; remark: listed apart in the source
recombinant human IL-1α [25] = target: T2, recombinant human IL-1α; assay: SPR (Biacore), Ig captured via goat anti-human IgG Fc, antigen in solution
Experimental: as §1

[26] = target: T3, recombinant cynomolgus IL-1β; assay: as above
Experimental: as §1

recombinant human IL-1β [27] = target: T1, recombinant human IL-1β; assay: as above
Experimental: as §1

[28] = target: T5, recombinant cynomolgus IL-1α; assay: as above
Experimental: as §1

B1: DVD3-h1B12.34-SS-X3, human anti-IL-1α/β DVD IgG1/k mut (234,235) (bispecific antibody)
heavy: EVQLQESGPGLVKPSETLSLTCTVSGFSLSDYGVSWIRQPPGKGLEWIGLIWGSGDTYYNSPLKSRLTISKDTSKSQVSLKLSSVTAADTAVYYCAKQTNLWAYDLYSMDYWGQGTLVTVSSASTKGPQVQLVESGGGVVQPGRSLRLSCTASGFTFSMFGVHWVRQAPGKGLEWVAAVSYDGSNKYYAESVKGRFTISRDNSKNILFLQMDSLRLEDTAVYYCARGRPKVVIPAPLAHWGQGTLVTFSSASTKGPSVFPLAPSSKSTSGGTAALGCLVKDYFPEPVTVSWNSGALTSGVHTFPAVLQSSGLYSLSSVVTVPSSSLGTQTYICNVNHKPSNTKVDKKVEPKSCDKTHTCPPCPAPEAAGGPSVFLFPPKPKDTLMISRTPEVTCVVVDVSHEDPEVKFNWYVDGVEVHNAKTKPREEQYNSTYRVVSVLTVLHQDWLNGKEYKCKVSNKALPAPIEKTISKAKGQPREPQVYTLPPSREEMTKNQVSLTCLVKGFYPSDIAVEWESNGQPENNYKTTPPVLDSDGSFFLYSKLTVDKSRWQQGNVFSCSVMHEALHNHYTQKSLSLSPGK
light: DIQMTQSPSSLSASVGDRVTITCQASQDIDDDLNWYQQKPGKAPKLLISLASILRPGVPSRFSGSGSGTDFTFTISSLQPEDFATYYCLQSDSFPLTFGQGTKLEIKRTVAAPDIQMTQSPSSVSASVGDRVTITCRASQGISSWLAWYQQKPGKAPKLLIYEASNLETGVPSRFSGSGSGSDFTLTISSLQPEDFATYYCQQTSSFLLSFGGGTKVEHKRTVAAPSVFIFPPSDEQLKSGTASVVCLLNNFYPREAKVQWKVDNALQSGNSQESVTEQDSKDSTYSLSSTLTLSKADYEKHKVYACEVTHQGLSSPVTKSFNRGEC
notes: also called PR-1358318
With B1 the Kd (recombinant human IL-1β [1]) was under 0.026 pM, the koff (recombinant human IL-1β [2]) was under 1e-06 s⁻¹ and the “Potency (IC50) pM, MRC-5 bioassay” value (recombinant human IL-1α [3]) was 41.3 pM. For the same binder, the “Potency (IC50) pM, MRC-5 bioassay” value [4] was 2.13 pM, the “Potency (IC50) pM, MRC-5 bioassay” value (recombinant human IL-1β [5]) was 42.2 pM and the “Potency (IC50) pM, MRC-5 bioassay” value [6] was 0.998 pM. For the same binder, the “Potency (IC50) pM, MRC-5 bioassay” value [7] was 1900 pM, the “Potency (IC50) pM, MRC-5 bioassay” value [8] was 50.4 pM and the Kd (recombinant human IL-1α [9]) was 30 pM. The koff (recombinant human IL-1α [9]) was 4.2e-06 s⁻¹, the kon (recombinant human IL-1α [9]) was 140000 M⁻¹ s⁻¹ and the Kd [10] was 0.67 pM. The koff [10] was 1.2e-05 s⁻¹, the kon [10] was 1.8e+07 M⁻¹ s⁻¹ and the kon (recombinant human IL-1β [11]) was 3.9e+07 M⁻¹ s⁻¹. The Kd [12] was 2300 pM, the koff [12] was 0.00024 s⁻¹ and the kon [12] was 100000 M⁻¹ s⁻¹.

B2: 1B12.9, human anti-IL-1β IgG1/k mut (234,235) (antibody, V domains shown)
VH: EVQLQESGPGLVKPSETLSLTCTVSGFSLSDYGVSWIRQPPGKGLEWLGLIWGGGDTYYNSPLKSRLTISKDNSKSQVSLKLSSVTAADTAVYYCAKQRTLWGYDLYGMDYWGQGTLVTVSS
VL: DTQMTQSPSSLSASVGDRVTITCITSTDIDVDMNWYQQKPGKPPKLLISQGNTLRPGVPSRFSSSGSGTDFTFTISSLQPEDFATYYCLQSDNLPLTFGQGTKLEIKR
notes: also called PR-1317335; mAb 1B12.9
B2 was tested, and the “Potency IC50 (pM), MRC-5 bioassay (IL-8 secretion)” value (shortened to “Potency IC50 (pM), MRC-5 bioassay”) [13] was 352 pM, the “Potency IC50 (pM), MRC-5 bioassay” value (recombinant human IL-1β [14]) was 691 pM and the “Potency IC50 (pM), MRC-5 bioassay” value [15] was 214 pM. It also gave a Kd [16] of 600 pM, a koff [16] of 0.00085 s⁻¹ and a kon [16] of 1.4e+06 M⁻¹ s⁻¹. For the same binder, the Kd (recombinant human IL-1β [17]) was 130 pM, the koff (recombinant human IL-1β [17]) was 0.00077 s⁻¹ and the kon (recombinant human IL-1β [17]) was 5.8e+06 M⁻¹ s⁻¹. It also gave a Kd [18] of 490 pM, a koff [18] of 0.00098 s⁻¹ and a kon [18] of 2e+06 M⁻¹ s⁻¹. It also gave a Kd (recombinant human IL-1β [19]) of 140 pM, a koff (recombinant human IL-1β [19]) of 0.00076 s⁻¹ and a kon (recombinant human IL-1β [19]) of 5.5e+06 M⁻¹ s⁻¹. The Kd [20] was 550 pM, the koff [20] was 0.00092 s⁻¹ and the kon [20] was 1.7e+06 M⁻¹ s⁻¹. The Kd (recombinant human IL-1β [21]) was 140 pM, the koff (recombinant human IL-1β [21]) was 0.00077 s⁻¹ and the kon (recombinant human IL-1β [21]) was 5.7e+06 M⁻¹ s⁻¹.

B3: Humanized monoclonal antibody 1B12.1 (antibody, V domains shown)
VH: EVQLQESGPGLVKPSETLSLTCTVSGFSLSDYGVSWIRQPPGKGLEWLGLIWGGGDTYYNSPLKSRLTISKDNSKSQVSLKLSSVTAADTAVYYCAKQRTLWGYDLYGMDYWGQGTLVTVSS
VL: DTQVTQSPSSLSASVGDRVTITCITSTDIDVDMNWYQQKPGKPPKLLISQGNTLRPGVPSRFSSSGSGTDFTFTISSLQPEDFATYYCLQSDNLPLTFGQGTKLEIK
For B3, the “Potency IC50 (pM), MRC-5 bioassay” value [13] was 410 pM, the “Potency IC50 (pM), MRC-5 bioassay” value (recombinant human IL-1β [14]) was 913 pM and the “Potency IC50 (pM), MRC-5 bioassay” value [15] was 329 pM.

B4: 1B12.1-SS-X3 DVD-Ig IgG1/k mut (234,235) (bispecific antibody)
heavy: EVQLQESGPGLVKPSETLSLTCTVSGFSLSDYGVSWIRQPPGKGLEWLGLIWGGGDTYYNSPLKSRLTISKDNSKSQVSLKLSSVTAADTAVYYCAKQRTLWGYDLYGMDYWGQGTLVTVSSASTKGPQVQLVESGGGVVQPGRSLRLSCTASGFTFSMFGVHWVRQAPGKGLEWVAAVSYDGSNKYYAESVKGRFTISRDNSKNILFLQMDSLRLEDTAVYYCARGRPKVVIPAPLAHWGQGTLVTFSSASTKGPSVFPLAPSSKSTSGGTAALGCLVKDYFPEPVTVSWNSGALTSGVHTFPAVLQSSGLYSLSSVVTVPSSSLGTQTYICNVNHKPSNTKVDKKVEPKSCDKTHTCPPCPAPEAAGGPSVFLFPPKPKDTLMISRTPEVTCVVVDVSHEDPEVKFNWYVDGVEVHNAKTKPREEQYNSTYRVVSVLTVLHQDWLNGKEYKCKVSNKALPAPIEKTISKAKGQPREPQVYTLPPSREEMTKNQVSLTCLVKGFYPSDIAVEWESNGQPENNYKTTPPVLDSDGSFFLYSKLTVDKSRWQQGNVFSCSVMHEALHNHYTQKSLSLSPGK
light: DTQVTQSPSSLSASVGDRVTITCITSTDIDVDMNWYQQKPGKPPKLLISQGNTLRPGVPSRFSSSGSGTDFTFTISSLQPEDFATYYCLQSDNLPLTFGQGTKLEIKRTVAAPDIQMTQSPSSVSASVGDRVTITCRASQGISSWLAWYQQKPGKAPKLLIYEASNLETGVPSRFSGSGSGSDFTLTISSLQPEDFATYYCQQTSSFLLSFGGGTKVEHKRTVAAPSVFIFPPSDEQLKSGTASVVCLLNNFYPREAKVQWKVDNALQSGNSQESVTEQDSKDSTYSLSSTLTLSKADYEKHKVYACEVTHQGLSSPVTKSFNRGEC
notes: also called PR-1308565
B4 was tested, and the “Potency IC50 (pM), MRC-5 bioassay” value (recombinant human IL-1α [22]) was 27 pM, the “Potency IC50 (pM), MRC-5 bioassay” value [13] was 461 pM and the “Potency IC50 (pM), MRC-5 bioassay” value (recombinant human IL-1β [14]) was 26 pM. For the same binder, the “Potency IC50 (pM), MRC-5 bioassay” value [15] was 156 pM, the “Potency IC50 (pM), MRC-5 bioassay” value [23] was 2510 pM and the “Potency IC50 (pM), MRC-5 bioassay” value [24] was 79 pM. The Kd (recombinant human IL-1α [25]) was 120 pM, the koff (recombinant human IL-1α [25]) was 2.4e-05 s⁻¹ and the kon (recombinant human IL-1α [25]) was 210000 M⁻¹ s⁻¹. It also gave a Kd [26] of 110 pM, a koff [26] of 0.0008 s⁻¹ and a kon [26] of 7.3e+06 M⁻¹ s⁻¹. The Kd (recombinant human IL-1β [27]) was under 820 pM, the koff (recombinant human IL-1β [27]) was 0.00082 s⁻¹ and the kon (recombinant human IL-1β [27]) was over 1e+06 M⁻¹ s⁻¹. It also gave a Kd [28] of 3500 pM, a koff [28] of 0.00026 s⁻¹ and a kon [28] of 74000 M⁻¹ s⁻¹.

— patent publication US20140178389A1 (AbbVie / Abbott, published 2014)
